This note sets out measurements from paper PMC8353492.

In experiment [1] the target is NOX2 phox complex (rhodamine-tagged cytochrome b558 (gp91 plus p22), p40, p47 and p67), cell-free system (UniProt P04839). The experiment can be described thus: rhodamine fluorescence intensity over time; fully preactivated (GTP-bound) Rac added to the cell-free NOX2 phox complex with rhodamine-tagged cytochrome b558 (subunits 100 nM), SDS 100 μM; 10 mM MgCl2, 50 mM KCl, 1 mM NaCl, 0.2 mM NADPH, 10 mM GTP, 10 mM Mops pH 7.4.

Experiment [2] has the same target. The experiment can be described thus: rhodamine fluorescence intensity over time; initially inactive (GDP-bound) Rac added to the cell-free NOX2 phox complex with rhodamine-tagged cytochrome b558 after a fraction of preactivated wt Rac (∼2 mol %); SDS 100 μM; assay buffer with NADPH and GTP, pH 7.4; also with H2O2 (unaffected) or ascorbic acid 10 mM (enhanced).

“K132E Rac (from UniProt P63000 1-192) (natural protein)”: the fold slower binding than wt Rac in experiment [1] is 1.5 fold. Moreover, the fold slower rate of binding than wt Rac in experiment [2] was 1.5 fold.
For the substance “L134R Rac (from UniProt P63000 1-192) (natural protein)”, the fold slower binding than wt Rac in experiment [1] worked out at 1.5 fold. For the same substance, in experiment [2], the fold slower rate of binding than wt Rac was found to be 1.5 fold.
